Patent US20160257942, “MODIFIED HELICASES” (Oxford Nanopore Technologies Ltd., published 2016)

Target: T1, T4 Dda E94C/A360C (Enterobacteria phage T4, UniProt P32270 SEQ:1-439, E94C/A360C/(ΔM1)G1G2)
T1 sequence: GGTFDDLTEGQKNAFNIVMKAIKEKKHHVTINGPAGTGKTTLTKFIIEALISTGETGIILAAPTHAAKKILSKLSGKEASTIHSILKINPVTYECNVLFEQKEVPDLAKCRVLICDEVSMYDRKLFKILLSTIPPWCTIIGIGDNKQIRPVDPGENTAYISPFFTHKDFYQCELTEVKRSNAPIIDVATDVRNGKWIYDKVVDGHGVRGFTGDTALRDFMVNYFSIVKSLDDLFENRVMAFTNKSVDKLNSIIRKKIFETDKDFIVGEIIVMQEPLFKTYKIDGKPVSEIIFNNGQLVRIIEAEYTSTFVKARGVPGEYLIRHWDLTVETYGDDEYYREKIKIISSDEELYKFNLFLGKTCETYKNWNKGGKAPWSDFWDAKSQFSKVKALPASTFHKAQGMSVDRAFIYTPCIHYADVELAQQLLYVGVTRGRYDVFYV
Assay: FP; 25 mM potassium phosphate, 151.5 mM KCl, pH 8.0, 10 mM MgCl2, 25 C, 60 min; exact value only in figure
Conditions: label: FAM on thymine 37
Procedure: Two custom fluorescent substrates were used to assess the ability of T4 Dda—E94C/A360C helicase to bind to linear (SEQ ID NO: 64) and circular (SEQ ID NO: 65) single-stranded DNA. […] As the helicase bound to either fluorescent substrate in a buffered solution (25 mM potassium phosphate, 151.5 mM KCl, pH8.0, 10 mM MgCl₂), the fluorescence anisotropy (a property relating to the speed of tumbling of the DNA substrate in solution) increased. The lower the amount of helicase needed to effect an increase in anisotropy, the tighter the binding affinity between the DNA and helicase (FIG. 3).
T4 Dda—E94C/A360C was buffer exchanged into the binding buffer (25 mM potassium phosphate, 151.5 mM KCl, pH8.0, 10 mM MgCl₂) and then serially diluted over a concentration range of 0.02 nM to 750 nM. Each sample concentration was then mixed with linear or circular single-stranded DNA (1 nM of SEQ ID NO: 64 or 65) giving a final concentration range of T4 Dda—E94C/A360C of 0.01 nM to 375 nM and the fluorescence anisotropy assessed over the course of 60 min at 25° C.

TTTTTTTTTTTTTTTTTTTTTTTTTTTTTTTTTTTTTTTTTTTT (ssDNA) [44 nt linear ssDNA] was tested, and the Kd was less than 15 nM.
